Source: US20200129639A1 (Seagen, published 2020)

Target: T1, CD19 (UniProt P15391 20-556, limits assumed)
T1 sequence (looked up): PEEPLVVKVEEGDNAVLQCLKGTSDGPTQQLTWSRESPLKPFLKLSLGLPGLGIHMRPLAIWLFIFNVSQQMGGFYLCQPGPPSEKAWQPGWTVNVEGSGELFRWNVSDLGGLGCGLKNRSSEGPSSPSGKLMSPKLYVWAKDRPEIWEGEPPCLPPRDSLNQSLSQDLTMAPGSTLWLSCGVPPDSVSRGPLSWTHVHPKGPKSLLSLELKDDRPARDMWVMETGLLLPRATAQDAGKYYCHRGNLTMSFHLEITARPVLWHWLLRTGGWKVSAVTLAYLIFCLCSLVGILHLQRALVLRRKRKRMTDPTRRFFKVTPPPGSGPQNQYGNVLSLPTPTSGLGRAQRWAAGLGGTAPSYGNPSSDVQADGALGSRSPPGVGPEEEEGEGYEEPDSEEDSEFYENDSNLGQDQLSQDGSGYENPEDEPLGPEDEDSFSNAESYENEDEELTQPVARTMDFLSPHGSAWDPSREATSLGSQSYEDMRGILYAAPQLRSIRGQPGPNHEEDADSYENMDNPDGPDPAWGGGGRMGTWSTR
Test: cell-based or functional assay

B1: hBU12 co-conjugate (2 drugs on 1 ADC) (antibody, V domains shown)
VH: QVQLQESGPGLVKPSQTLSLTCTVSGGSISTSGMGVGWIRQHPGKGLEWIGHIWWDDDKRYNPALKSRVTISVDTSKNQFSLKLSSVTAADTAVYYCARMELWSYYFDYWGQGTLVTVSS
VL: EIVLTQSPATLSLSPGERATLSCSASSSVSYMHWYQQKPGQAPRLLIYDTSKLASGIPARFSGSGSGTDFTLTISSLEPEDVAVYYCFQGSVYPFTFGQGTKLEIKR
B1 was tested, and the “Co-Conjugate IC50 (ng/mL), cytotoxicity on Granta-519 cells” value was 3 ng/mL and the “Co-Conjugate IC50 (ng/mL), cytotoxicity on SU-DHL-16 cells” value was 0.2 ng/mL.
